According to US20210147526A1:

What was measured:
[1] = molecular target: ITGA7 mutant S977A on HEK-293T cells (human) (UniProt P05556); test: high-throughput flow cytometry on HEK-293T cells with the ITGA7 alanine mutant, high stringency, normalized to wild type
[2] = molecular target: ITGA7 mutant P980A on HEK-293T cells (human) (UniProt P05556); test: as above
ITGA7 mutant P980A on HEK-293T cells (human), sequence (chain, as listed by the source P980A P980A, chain 1 of 2): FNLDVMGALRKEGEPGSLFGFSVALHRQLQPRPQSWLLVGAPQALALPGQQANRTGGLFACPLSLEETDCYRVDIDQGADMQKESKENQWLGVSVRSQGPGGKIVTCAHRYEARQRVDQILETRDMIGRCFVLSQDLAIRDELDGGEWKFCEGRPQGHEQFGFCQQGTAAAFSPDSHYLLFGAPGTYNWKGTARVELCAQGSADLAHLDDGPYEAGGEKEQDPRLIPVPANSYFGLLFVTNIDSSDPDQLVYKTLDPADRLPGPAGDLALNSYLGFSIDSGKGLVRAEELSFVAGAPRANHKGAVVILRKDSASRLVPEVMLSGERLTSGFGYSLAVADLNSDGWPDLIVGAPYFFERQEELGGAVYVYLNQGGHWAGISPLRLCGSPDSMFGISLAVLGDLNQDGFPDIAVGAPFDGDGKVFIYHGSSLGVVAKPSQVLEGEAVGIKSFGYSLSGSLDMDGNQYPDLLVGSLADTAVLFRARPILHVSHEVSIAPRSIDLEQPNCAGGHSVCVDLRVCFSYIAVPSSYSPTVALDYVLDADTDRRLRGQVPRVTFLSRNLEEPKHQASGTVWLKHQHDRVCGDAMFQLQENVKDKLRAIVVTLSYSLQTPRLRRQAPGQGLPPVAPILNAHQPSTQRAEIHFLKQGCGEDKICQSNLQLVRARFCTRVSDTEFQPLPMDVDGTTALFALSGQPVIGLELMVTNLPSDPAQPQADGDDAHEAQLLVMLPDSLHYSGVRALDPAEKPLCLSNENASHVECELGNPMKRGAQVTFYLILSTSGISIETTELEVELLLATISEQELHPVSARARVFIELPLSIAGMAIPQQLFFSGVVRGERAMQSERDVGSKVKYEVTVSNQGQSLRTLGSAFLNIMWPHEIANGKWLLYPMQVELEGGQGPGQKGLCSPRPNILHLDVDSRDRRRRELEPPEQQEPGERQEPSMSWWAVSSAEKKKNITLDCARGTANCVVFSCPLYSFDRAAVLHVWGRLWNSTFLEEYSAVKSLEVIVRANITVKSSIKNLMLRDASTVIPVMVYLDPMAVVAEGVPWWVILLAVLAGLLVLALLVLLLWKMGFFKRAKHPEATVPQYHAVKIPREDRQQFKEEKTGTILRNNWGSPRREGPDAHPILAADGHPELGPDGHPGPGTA
ITGA7 mutant P980A on HEK-293T cells (human), sequence (P05556 21-798, chain 2 of 2): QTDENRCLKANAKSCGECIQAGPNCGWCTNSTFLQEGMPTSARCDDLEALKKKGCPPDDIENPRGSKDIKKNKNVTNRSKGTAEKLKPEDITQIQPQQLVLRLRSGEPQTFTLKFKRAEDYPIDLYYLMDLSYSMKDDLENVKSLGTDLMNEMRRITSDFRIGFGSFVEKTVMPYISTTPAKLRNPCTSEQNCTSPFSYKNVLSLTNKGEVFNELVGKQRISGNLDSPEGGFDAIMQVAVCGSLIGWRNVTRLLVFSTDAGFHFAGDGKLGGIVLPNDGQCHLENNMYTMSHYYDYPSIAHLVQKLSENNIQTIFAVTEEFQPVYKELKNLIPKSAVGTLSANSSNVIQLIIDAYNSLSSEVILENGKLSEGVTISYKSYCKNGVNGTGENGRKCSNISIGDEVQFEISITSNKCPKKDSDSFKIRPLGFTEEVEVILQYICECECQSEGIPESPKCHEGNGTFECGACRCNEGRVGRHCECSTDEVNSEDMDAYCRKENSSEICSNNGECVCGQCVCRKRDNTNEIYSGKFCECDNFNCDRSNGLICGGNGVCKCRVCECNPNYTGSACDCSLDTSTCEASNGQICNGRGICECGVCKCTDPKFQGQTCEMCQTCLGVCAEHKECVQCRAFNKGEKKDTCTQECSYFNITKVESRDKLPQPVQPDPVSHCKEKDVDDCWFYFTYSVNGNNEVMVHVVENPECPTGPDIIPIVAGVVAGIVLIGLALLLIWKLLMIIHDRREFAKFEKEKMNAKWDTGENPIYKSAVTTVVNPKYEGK

ITGA7 mutant S977A on HEK-293T cells (human), sequence (chain, as listed by the source S977A S977A, chain 1 of 2): as the sequence (chain, as listed by the source P980A P980A, chain 1 of 2) above, with S944A, A947P counted along it
ITGA7 mutant S977A on HEK-293T cells (human), sequence (P05556 21-798, chain 2 of 2): as the sequence (P05556 21-798, chain 2 of 2) above

B1: VL3VHK20TFT Fab (Fab, V domains shown)
VH: QVQLVQSGAEVKKPGASVKVSCKASGYTFTKYWINWVRQAPGQGLEWMGIIYPGSSTSNYNEKFKTRVTMTVDTSTSTAYMELSSLRSEDTAVYYCVKNDNWGQGTLVTVSS
VL: DIQMTQSPSSLSASVGDRVTITCRASESVDNYGISFMNWFQQKPGKAPKLLIYAASDLGSGVPSRFSGSGSGTDFTLTISSLQPEDFATYYCHQSKEVPYTFGQGTKLEIK
For B1, the Binding Reactivity (% WT) [1] was 8 % WT and the Binding Reactivity (% WT) [2] was 1.1 % WT.
